Data published in PMC4831045.

How the values were obtained:
[1] = target: cNTnC N-terminal domain (Homo sapiens) (UniProt P63316); details: cited from earlier work
[2] = target: cTnC(C35S)-i9: cardiac troponin C (C35S) with the levosimendan analog i9 covalently bound to C84 (UniProt P63316); experiment: NMR titration; 19F NMR; 530 μM Ca2+-saturated cTnC(C35S)-i9 in NMR buffer (100 mM KCl, 10 mM imidazole, 2 mM CaCl2, pH 6.9), 30 °C, titrated with switch-cTnI (144–163) 0 to 1,540 μM; area under the F4′ signal of i9 fit with one-to-one stoichiometry (xcrvfit)

Chain of switch-cTnI 144-163 (P19429 144-163): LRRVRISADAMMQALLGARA

| Substance | Kd [1] | Kd [2] |
| --- | --- | --- |
| switch-cTnI 144-163 (from UniProt P19429) | 26 µM | – |
| switch-cTnI (residues 144–163) (peptide) | – | 74 µM |
